Test results from publication PMC11784142, “About bacteriophage tail terminator and tail completion proteins: structure of the proximal extremity of siphophage T5 tail” (Journal of Virology, 2024).

B1: tail terminator protein p142 of bacteriophage T5 (natural protein, UniProt Q6QGE1 1-161, looked up)
chain: MDHRTSIAQAMVDRISKQMDGSQPDEYFNNLYGNVSRQTYKFEEIREFPYVAVHIGTETGQYLPSGQQWMFLELPILVYDKEKTDIQEQLEKLVADIKTVIDTGGNLEYTVSKPNGSTFPCEATDMIITSVSTDEGLLAPYGLAEINVTVRYQPPRRSLRR
notes: tail terminator protein p142 (TrP) of bacteriophage T5; a 161-residues protein; model compared over 156 residues; Native phage-encoded protein as it stands in the purified tail; hexameric ring that caps the tail tube; also called TrP_(p142); Trp_(p142); source: E. coli strain F infected with the mutant phage T5D20am30d; part of purified T5 tails (PEG precipitation, glycerol step gradient, ion …)
B2: tail completion protein p143 of bacteriophage T5 (natural protein, UniProt Q6QGE0 1-255, looked up)
chain: MSLSDLARQIIKEQLDTASRSENNKNTVVYSVETGLKDPTRDGTVAQVSFKFSKPVSQDLLNIRTASILKAVSSSLDLSGDLGALENLIQATAGKKSSVGKKRSTGRVQVNFGDPSDVEDGYSGAVTGASGRFVSNSNMKIILEIVAKEYLIKDMKKAGAPLKFRTGRFANSLKIKDVMLRDSETSKGSPELNVTYNYMTRPYSVFNPAVSTYRRLSLRPYPGARNPQKLIGEAIAKAARDLIHSRYKIKVNQGT
notes: tail completion protein p143 (TCP) of bacteriophage T5; 27.8 kDa, 255 residues; Native protein of the purified tail; the density was assigned to it by the fit of an AlphaFold2 model and because it was the only tail protein not yet localised; also called TCP_(p143); Neck1; source: E. coli strain F infected with the mutant phage T5D20am30d; part of purified T5 tails
B3: distal tail protein pb9 of bacteriophage T5 (natural protein, UniProt Q6QGE8 1-204, looked up)
chain: MRLPDPYTNPEYPGLGFESVNLVDNDPMIRDELPNGKVKEVKISAQYWGINISYPELFPDEYAFLDSRLLEYKRTGDYLDVLLPQYEAFRVRGDTKSVTIPAGQKGSQIILNTNGTLTGQPKAGDLFKLSTHPKVYKITNFSSSGNVWNISLYPDLFITTTGSEKPVFNGILFRTKLMNGDSFGSTLNNNGTYSGISLSLRESL
notes: distal tail protein pb9 (DTP) of bacteriophage T5; Native protein of the purified tail tip; hexamer; also called DTPpb9; source: E. coli strain F infected with the mutant phage T5D20am30d; part of purified T5 tails
B4: tail tube protein pb6 of bacteriophage T5 (natural protein, UniProt Q6QGE2 1-464, looked up)
chain: MSLQLLRNTRIFVSTVKTGHNKTNTQEILVQDDISWGQDSNSTDITVNEAGPRPTRGSKRFNDSLNAAEWSFSTYILPYKDKNTSKQIVPDYMLWHALSSGRAINLEGTTGAHNNATNFMVNFKDNSYHELAMLHIYILTDKTWSYIDSCQINQAEVNVDIEDIGRVTWSGNGNQLIPLDEQPFDPDQIGIDDETYMTIQGSYIKNKLTILKIKDMDTNKSYDIPITGGTFTINNNITYLTPNVMSRVTIPIGSFTGAFELTGSLTAYLNDKSLGSMELYKDLIKTLKVVNRFEIALVLGGEYDDERPAAILVAKQAHVNIPTIETDDVLGTSVEFKAIPSDLDAGDEGYLGFSSKYTRTTINNLIVNGDGATDAVTAITVKSAGNVTTLNRSATLQMSVEVTPSSARNKEVTWAITAGDAATINATGLLRADASKTGAVTVEATAKDGSGVKGTKVITVTAGG
notes: tail tube protein pb6 (TTP) of bacteriophage T5; structures compared over the 464 residues; Native phage-encoded protein as it stands in the purified tail; trimeric ring (last ring of the tube, under the p142 ring); also called TTPpb6; source: E. coli strain F infected with the mutant phage T5D20am30d; part of purified T5 tails (PEG precipitation, glycerol step gradient, ion exchange)
B5: Baseplate Hub Protein pb3 of bacteriophage T5 (natural protein, UniProt Q6QGE9 1-949, looked up)
chain: MKKILDSAKNYLNTHDKLKTACLIALELPSSSGSAATYIYLTDYFRDVTYNGILYRSGKVKSISSHKQNRQLSIGSLSFTITGTAEDEVLKLVQNGVSFLDRGITIHQAIINEEGNILPVDPDTDGPLLFFRGRITGGGIKDNVNTSGIGTSVITWNCSNQFYDFDRVNGRYTDDASHRGLEVVNGTLQPSNGAKRPEYQEDYGFFHSNKSTTILAKYQVKEERYKLQSKKKLFGLSRSYSLKKYYETVTKEVDLDFNLAAKFIPVVYGVQKIPGIPIFADTELNNPNIVYVVYAFAEGEIDGFLDFYIGDSPMICFDETDSDTRTCFGRKKIVGDTMHRLAAGTSTSQPSVHGQEYKYNDGNGDIRIWTFHGKPDQTAAQVLVDIAKKKGFYLQNQNGNGPEYWDSRYKLLDTAYAIVRFTINENRTEIPEISAEVQGKKVKVYNSDGTIKADKTSLNGIWQLMDYLTSDRYGADITLDQFPLQKVISEAKILDIIDESYQTSWQPYWRYVGWNDPLSENRQIVQLNTILDTSESVFKNVQGILESFGGAINNLSGEYRITVEKYSTNPLRINFLDTYGDLDLSDTTGRNKFNSVQASLVDPALSWKTNSITFYNSKFKEQDKGLDKKLQLSFANITNYYTARSYADRELKKSRYSRTLSFSVPYKFIGIEPNDPIAFTYERYGWKDKFFLVDEVENTRDGKINLVLQEYGEDVFINSEQVDNSGNDIPDISNNVLPPRDFKYTPTPGGVVGAIGKNGELSWLPSLTNNVVYYSIAHSGHVNPYIVQQLENNPNERMIQEIIGEPAGLAIFELRAVDINGRRSSPVTLSVDLNSAKNLSVVSNFRVVNTASGDVTEFVGPDVKLAWDKIPEEEIIPEIYYTLEIYDSQDRMLRSVRIEDVYTYDYLLTYNKADFALLNSGALGINRKLRFRIRAEGENGEQSVGWATI
notes: Baseplate Hub Protein pb3 (BHP) of bacteriophage T5; Native protein of the purified tail tip; trimer; also called BHPpb3; source: E. coli strain F infected with the mutant phage T5D20am30d; part of purified T5 tails

How the values were obtained:
[1] = target: the molecule itself; assay: cryo-EM structure; proximal extremity of native T5 tails (assembled in infected E. coli, purified as whole tails); single particle analysis, C3 symmetry imposed, 3.88 Å
[2] = target: B5; assay: cryo-EM structure; tail tip of native purified T5 tails; particles recentred on the lower part of BHPpb3, symmetry relaxation, no symmetry imposed; 6–10 Å in the area of the additional density; AlphaFold2 model of TCP_(p143) flexibly fitted; conditions: partners not purified
[3] = target: the molecule itself; assay: as above

Binder | stoichiometry N [1] | stoichiometry N [3] | further results
B1 | 6 |  | 
B2 |  |  | stoichiometry N [2]: 1 copy per phage
B3 |  | 6 | 
B4 | 3 |  | 
B5 |  | 3 | 
